Measured values published in the supplement of paper PMC9170038.

Test system: K4 kissing-loop RNA reporter
Assay: apparent KD of K4 kissing-loop reporter; higher = weaker reporter binding
Details: Eterna round: R107
Procedure: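 RNA-MaP round R107: designed RNA switches with theophylline, tryptophan, arginine or FMN aptamers are transcribed on-chip within common flanks. They are titrated with a labelled K4 kissing-loop RNA reporter in RNA-MaP buffer (100 mM Tris pH 7.5, 80 mM KCl, 4 mM MgCl2), without ligand or with the indicated ligand. Median apparent KD per design.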

[1] = input ligand: theophylline 20 uM
[2] = input ligand: tryptophan 2.4 mM
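Note: bound reporter read as fluorescence of individual clusters on recovered sequencing chips by microscopy, with normalized cluster intensities fitted with a binding model.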

Sequence	apparent KD of K4 kissing-loop reporter (input ligand: FMN 200 uM) [nM]	apparent KD of K4 kissing-loop reporter (input ligand: arginine 13.2 mM) [nM]	apparent KD of K4 kissing-loop reporter (input ligand: none) [nM]	apparent KD of K4 kissing-loop reporter [1] [nM]	apparent KD of K4 kissing-loop reporter [2] [nM]
AUUAAUUUCAGAGGAUAUCGUUAUUUUAUUUAAUUUAUUCAUUUAUGCAGUGAUGUUGCUAUUAUUCGAGAAGGCUGAUUUAUAA [JR_ExcFMNB_Sub006]	82.1	83.5	34	70.4	35.3
AUUAAUUUCAGAGGAUAUCGUUAUUUUUUAUAUUUUAUUCAUUUAUGCAGUGAUGUUGCUAUUAUUCGAGAAGGCUGAUUUAUAA [JR_ExcFMNB_Sub004]	86.4	105	44.9	100	50.9
AUUAUAUUGUGAAGGAGCGCGAAUAGCAGUGAUGUUGCUAUCAAACGAUAUAUUAUUUACACGCAGGUAGGUCGCACAAUAUAUA [JR_Nu_SSArginiB_Sub022]	171	125	149	124	155
AUUCACCUGUCGGCCGCCACUGCGUUAGCAGUAUCGGGCAGAAACUUCGCAGUGAUGUUGCGACUCAGGACCGGGACGUUGAGGA [theeternabot_exclusion_KL_Trp_B_29]	445	406	468	454	504
AUUCAGAUCUGAAGGAGCGCCUUGACAAAUUACUGCUUUGAGCAGUGAUGUUGCUCAAUUAGGCAGGUAGGUCGCAGAUCUAACC [Arg B Ex t7]	377	335	414	383	389
AUUCUUAUAAUAACACUAUAUACAACUGAAGGAGCGACAAUAAAGUCAGGUAGGUCGCAGAAUAAAUGAGUGAUGUUCAUUUUUA [JR_ExcArginiA_Sub011]	129	153	129	150	86.8
AUUGAACAAGUGAUGUUUGUAUUUUCCGAAGGAGCGUCUAAUAAGACAGGUAGGUCGCGGUUUCUCUUAAUAAUCAGGUCUUUAA [JR_Nu_ExcArginiA_Sub021]	279	287	279	292	238
AUUUAAUGUAUAGAUUAUAUACAUUAUUCAGAGGAUAUGCAUUGAAGCAGAAGGCUGGGUGUAGUGAUGUUGCAAUUUUAAUUUA [whbob_SS_FMNA__2th172]	118	184	159	299	84.1
AUUUAAUUAACUGAUACCAGACUUUUUGUUUUGUUUAUUACUAGUGAUGUUAGUGUUUCUGUCCCUUGGCAGCAGAAUCUACUUA [JR_ExcTheophyB_Sub019]	172	297	191	364	165
AUUUAUUCGAGUGAUGUUCGUGAUUUUUCAGAGGAUAUGCGUAAUAGCAGAAGGCUGUAUUUAUAUAUAUUUUGAUUUUUUUAAA [JR_Nu3_ExcFMNA_Sub024]	82.2	122	64.6	99.4	61.8
AUUUUUUUGUCAGGAUAUUAGUGUGGGUUUGGUUUGUUAGUGAUGUUGAUAUUUGGUUUAUGUAUUUAAGAAGGGAUUUAGCGGU [frrvemullin]	563	359	408	492	375
